Reference: the supplement of paper PMC7125110
± gives the standard error. For some of these results: This sample holds only a part of the variants without activity.

B1: glmS ribozyme (parent)
chain: AUAAAAGCGCCAGAACUACAGAAAUGUAGUUGACGAGGAGGAGGUUUAUCGAAUUUUCGGCGGAUGCCUCCAAA

Assays:
Settings in all cases: with glucosamine-6-phosphate
glucosamine-6-phosphate [1] = variants of: B1; assay: kcat; higher = faster cleavage; RNA array
Outline: (§1)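 Barcoded ribozyme variants were transcribed in situ on sequenced MiSeq chips by E. coli RNA polymerase. At 37 °C, a hybridised Cy3 probe tracked them while glucosamine-6-phosphate (40 μM to 10 mM) in HEPES/KCl/Mg(OAc)2 buffer flowed in and tiles were imaged over ~14 h. Per-tile medians of signals normalised to baseline and to non-cleaving reference variants were fit to one- or two-exponential decays, giving kobs. kcat and KM came from weighted Michaelis–Menten fits across concentrations.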

glucosamine-6-phosphate [2] = variants of: B1; assay: KM; higher = weaker cofactor use; RNA array
Outline: as §1

glucosamine-6-phosphate [3] = variants of: B1; assay: self-cleavage kobs at 40 uM GlcN6P; higher = faster cleavage; RNA array
Outline: as §1

glucosamine-6-phosphate [4] = variants of: B1; assay: self-cleavage kobs at 160 uM GlcN6P; higher = faster cleavage; RNA array
Outline: as §1

glucosamine-6-phosphate [5] = variants of: B1; assay: self-cleavage kobs at 640 uM GlcN6P; higher = faster cleavage; RNA array
Outline: as §1

glucosamine-6-phosphate [6] = variants of: B1; assay: self-cleavage kobs at 2500 uM GlcN6P; higher = faster cleavage; RNA array
Outline: as §1

glucosamine-6-phosphate [7] = variants of: B1; assay: self-cleavage kobs at 10000 uM GlcN6P; higher = faster cleavage; RNA array
Outline: as §1

Row | Variant | kcat (glucosamine-6-phosphate [1]) [s⁻¹] | KM (glucosamine-6-phosphate [2]) [µM] | self-cleavage kobs at 40 uM GlcN6P (glucosamine-6-phosphate [3]) [s⁻¹] | self-cleavage kobs at 160 uM GlcN6P (glucosamine-6-phosphate [4]) [s⁻¹] | self-cleavage kobs at 640 uM GlcN6P (glucosamine-6-phosphate [5]) [s⁻¹] | self-cleavage kobs at 2500 uM GlcN6P (glucosamine-6-phosphate [6]) [s⁻¹] | self-cleavage kobs at 10000 uM GlcN6P (glucosamine-6-phosphate [7]) [s⁻¹]
1 | A52C | 2.8e-05 ± 8.9e-07 | 835 ± 150 | < 1e-05 | < 1e-05 | 1.03e-05 ± 3.3e-06 | 2.17e-05 ± 1.5e-06 | 2.56e-05 ± 1.3e-06
2 | G41U U46A | 0.000481 ± 0.0001 | 2400 ± 860 | – | 4.83e-05 ± 1.9e-05 | 9.28e-05 ± 1.2e-05 | 0.000324 ± 5.4e-05 | 0.000362 ± 5.7e-05
3 | G32A A42U C70A | < 1e-05 | – | < 1e-05 | < 1e-05 | < 1e-05 | – | –
4 | G44C U56A | 7.55e-05 ± 7.5e-06 | 2860 ± 1100 | – | – | – | 3.9e-05 ± 1.4e-05 | 5.85e-05 ± 6.8e-06
5 | A12U U69G | 0.000139 ± 1.8e-05 | 437 ± 200 | 2.68e-05 ± 8.8e-06 | 2.7e-05 ± 8.8e-06 | 9.2e-05 ± 1e-05 | 0.000109 ± 1e-05 | 0.000145 ± 1.5e-05
6 | A14G U45C | 0.00289 ± 0.0011 | – | 0.000196 ± 4.6e-05 | 0.000403 ± 9.2e-05 | 0.00149 ± 0.00031 | 0.00215 ± 0.00057 | –
7 | U31A U47G | 0.00294 ± 0.0012 | – | 7.57e-05 ± 1.9e-05 | 0.000353 ± 7.9e-05 | 0.00063 ± 0.00014 | 0.00264 ± 0.00082 | 0.00266 ± 0.00079
8 | G40A C58U | 4.57e-05 ± 1.8e-05 | – | – | – | – | – | –
9 | U31A G41U | 0.000384 ± 3.8e-05 | 430 ± 89 | 2.67e-05 ± 1.2e-05 | 0.000103 ± 2e-05 | 0.000289 ± 6.2e-05 | 0.00034 ± 8.7e-05 | 0.000344 ± 6e-05
10 | G35U C67G | 1.19e-05 ± 2.3e-06 | – | – | – | – | < 1e-05 | –
11 | A12U G40U U45G | 0.00175 ± 0.00051 | – | 0.000216 ± 3.5e-05 | – | 0.000743 ± 0.00024 | 0.00239 ± 0.0011 | 0.00207 ± 0.00036
12 | U56A C67A | 0.00827 ± 0.0033 | 3230 ± 1600 | 0.000132 ± 1.3e-05 | 0.000294 ± 4.8e-05 | 0.00132 ± 0.00016 | 0.00323 ± 0.00075 | 0.00678 ± 0.0011
13 | C16A U69A | 3.39e-05 ± 9e-06 | – | – | – | – | 4.42e-05 ± 1.3e-05 | –
14 | A6G A12G | 1.13e-05 ± 1.3e-06 | – | – | – | – | – | –
15 | U55G C68G | 9.78e-05 ± 1e-05 | 345 ± 170 | – | – | 6.54e-05 ± 1.3e-05 | 7.64e-05 ± 1.5e-05 | 0.000104 ± 1.7e-05
16 | U30A U49A C68A C71G | 4.8e-05 ± 2.1e-05 | – | – | – | 7.12e-05 ± 2.8e-05 | – | –
17 | A52C U54A | 1.15e-05 ± 1.5e-06 | 368 ± 130 | – | – | – | – | –
